# From FireProtDB (doi:10.1128/aem.02129-17)
# B1: Lipase, P19515 (parent)
# chain: MVLKQRANYLGFLIVFFTAFLVEAVPIKRQSNSTVDSLPPLIPSRTSAPSSSPSTTDPEAPAMSRNGPLPSDVETKYGMALNATSYPDSVVQAMSIDGGIRAATSQEINELTYYTTLSANSYCRTVIPGATWDCIHCDATEDLKIIKTWSTLIYDTNAMVARGDSEKTIYIVFRGSSSIRNWIADLTFVPVSYPPVSGTKVHKGFLDSYGEVQNELVATVLDQFKQYPSYKVAVTGHSLGGATALLCALDLYQREEGLSSSNLFLYTQGQPRVGDPAFANYVVSTGIPYRRTVNERDIVPHLPPAAFGFLHAGEEYWITDNSPETVQVCTSDLETSDCSNSIVPFTSVLDHLSYFGINTGLCT
# Variants of: B1
# Conditions: Rhizomucor miehei; pH 8; Thermal; DSF; sodium phosphate buffer 50 mM; structure 6QPR; whole UniProt chain shown
Variant,Tm [°C],"change of melting temperature, mutant - wild type (higher = more stable) [°C]"
T112K T116I,64,5.3
Q327I,59.5,2.3
D320L,58.7,-3.3
T112K T116I E324I V283C D332C,72.3,13.6
T112K E324I,66.7,8
N280L,59.3,-10
N280W,55.6,-3.1
T116I,61.1,2.4
N214R,59.4,-13.6
N214L,59.2,-7.5
N358W,57.2,-2.7
T112I,58.1,-3
T112W,57.8,-2.2
T112K,63.2,4.5
D332L,57.8,-2.5
D332Y,58.7,-5.4
D332W,58.7,-4.5
D332F,58.2,-3
D332P,58.7,-3.8
D332R,58,-2.8

Variant,Tm [°C],"change of melting temperature, mutant - wild type (higher = more stable) [°C]"
S208W,59.5,3.9
S208F,59.2,-6.4
S208Y,58.9,-5.5
S208V,59.1,-4.9
E324F,60.3,1.6
E324L,64.1,5.4
E324M,60,1.3
E324T,62.5,3.8
E324P,61.2,2.5
E324I,64.4,5.7
E324Y,60.8,2.1
E324R,59.9,1.2
E324V,64.1,5.4
E324W,61.4,2.7
T112K T116I E324I,68.1,9.4
T112K T116I E324I S150C N157C,69.3,10.6
E314I,58.7,-2.7
E314V,58.8,-5.3
N321L,59.3,-13
